Measurements: patent US20220324978A1
Residue numbers refer to the chain shown, from its start.

T1: Histidine-tagged canine PD-1 protein (canine)
T1 sequence: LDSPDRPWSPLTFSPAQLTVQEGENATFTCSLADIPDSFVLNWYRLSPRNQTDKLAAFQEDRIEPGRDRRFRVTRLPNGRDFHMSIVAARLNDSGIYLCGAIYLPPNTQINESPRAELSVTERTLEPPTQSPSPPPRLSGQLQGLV

B1: 1B9-H1K1-IgG4 (antibody, V domains shown)
VH: EVQLVQSGAEVKKPGASVKVSCKTSGYTFTSFWMNWVRLAPGAGLDWIGRVDPYDSETHYNQKFKDRVILTVDTSTSTAYMELSSLRAGDIAVYYCATQFGFSWLAYWGQGTLVTVSA
VL: EIVMTQSPGSLAGSAGESVSINCKSSQSLLYSSNQKNYLAWYQQKPGESPKLLIYWASTRESGVPDRFSGSGSGTDFTLTINNLQAEDVGVYYCQQYYSNPYTFGQGTKLEIK
B2: 1B9-H2K2-IgG4 (antibody, V domains shown)
VH: B1 VH with T24A, D46E, V68A
VL: B1 VL with E1D, G13V, L84V
B3: 1B9-H2K1-IgG4 (antibody, V domains shown)
VH: B1 VH with T24A, D46E, V68A
VL: B1 VL
B4: 1B9-H1K2-IgG4 (antibody, V domains shown)
VH: B1 VH
VL: B1 VL with E1D, G13V, L84V
B5: 4A7-mHvKv-dIgG4 (antibody, V domains shown)
VH: EVQLVESGGDLVKPGGSLKLSCVASGFPFSNFGMSWVRQTPDKRLEWVATISSGSSYSYYSDSVKGRFTISRDNAKNTLFLQMNSLKSEDTAIFYCARGESRFAYWGQGTLVTVSA
VL: DVVITQDELSNPVTSGESVSISCRSNKSLLYEDGQTYLNWFLQRPGQSPQLLIYLMSTRASGVSDRFSGSGSGTDFTLEISEVRAEDVGVYYCQQLIEYPLTFGAGTKLELKR
B6: 1D8-H1K1-dIgG4 (antibody, V domains shown)
VH: EVQLVESGGDLVKPVGSLRLSCVASGFTFNNFGMSWVRQAPGKGLQWVATLSSGSSYTYYSDSVKGRFTISRDNAKNTLYLQMNSLRAEDTAMYYCTRGESRFAYWGQGTLVTVSA
VL: GVVITQDPLSLAVTPGELVTISCRSSKSLLYKDGKTYLNWYLQKPGQTPRLLIYLMSTRASGVSDRFSGSGSGTDFTLKISRVEAEDVGVYYCQQLIEYPLTFGAGTKVELK
B7: 1D8-H2K2-dIgG4 (antibody, V domains shown)
VH: B6 VH with Q46E
VL: B6 VL with Y41F
B8: 1D8-H2K1-dIgG4 (antibody, V domains shown)
VH: B6 VH with Q46E
VL: B6 VL
B9: 1D8-mHvKv-dIgG4 (antibody, V domains shown)
VH: B6 VH with V15G, R19K, V23A, A40N, G42D, G44R, Q46E, R87K, A88S
VL: B5 VL with D1G, N26S, E32K, Q35K, E82R, R84K
B10: 1D8-H1K2-dIgG4 (antibody, V domains shown)
VH: B6 VH
VL: B6 VL with Y41F

These binders were tested against T1, Histidine-tagged canine PD-1 protein (canine) (assay: SPR (Biacore), dPD-1-His amine-coupled to CM5 chip, antibody injected, 1:1 Langmuir fit).

Kd [nM] | koff [s⁻¹] | kon [M⁻¹ s⁻¹] | Binder
1.07 | 0.000454 | 424000 | B1
0.745 | 0.00043 | 577000 | B2
0.768 | 0.000454 | 591000 | B3
1.03 | 0.00049 | 475000 | B4
0.29 | 0.000152 | 525000 | B5
4.57 | 0.00309 | 675000 | B6
4.34 | 0.00262 | 604000 | B7
5.36 | 0.00348 | 650000 | B8
0.094 | 0.000135 | 1.44e+06 | B9
4.5 | 0.00248 | 550000 | B10
